Data published in US20080194485.

Molecular target: prekallikrein (PK), P03952
Sequence (P03952 20-638): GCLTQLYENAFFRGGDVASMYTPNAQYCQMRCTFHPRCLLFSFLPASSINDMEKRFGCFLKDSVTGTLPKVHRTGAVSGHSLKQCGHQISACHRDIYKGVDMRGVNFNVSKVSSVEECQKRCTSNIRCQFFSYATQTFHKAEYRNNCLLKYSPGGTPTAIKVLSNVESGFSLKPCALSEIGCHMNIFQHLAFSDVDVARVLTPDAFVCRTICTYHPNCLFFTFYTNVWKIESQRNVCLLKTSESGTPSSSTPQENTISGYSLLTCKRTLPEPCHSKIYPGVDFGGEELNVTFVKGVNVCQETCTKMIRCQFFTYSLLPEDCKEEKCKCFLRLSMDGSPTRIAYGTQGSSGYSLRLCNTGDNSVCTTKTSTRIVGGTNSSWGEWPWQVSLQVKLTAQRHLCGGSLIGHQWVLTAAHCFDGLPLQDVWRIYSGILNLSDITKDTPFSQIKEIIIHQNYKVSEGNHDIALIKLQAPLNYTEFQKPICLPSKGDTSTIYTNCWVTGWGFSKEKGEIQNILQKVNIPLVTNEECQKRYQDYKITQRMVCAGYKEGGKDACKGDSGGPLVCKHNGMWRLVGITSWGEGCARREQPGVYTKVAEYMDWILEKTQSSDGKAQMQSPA

B1: recombinant PRCP51 (recombinant human prolylcarboxypeptidase, predicted molecular mass 51 kDa) (protein)
chain: KNYSVLYFQQKVDHFGFNTVKTFNQRYLVADKYWKKNGGSILFYTGNEGDIIWFCNNTGFMWDVAEELKAMLVFAEHRYYGESLPFGDNSFKDSRHLNFLTSEQALADFAELIKHLKRTIPGAENQPVIAIGGSYGGMLAAWFRMKYPHMVVGALAASAPIWQFEDLVPCGVFMKIVTTDFRKSGPHCSESIHRSWDAINRLSNTGSGLQWLTGALHLCSPLTSQDIQHLKDWISETWVNLAMVDYPYASNFLQPLPAWPIKVVCQYLKNPNVSDSLLLQNIFQALNVYYNYSGQVKCLNISETATSSLGTLGWSYQACTEVVMPFCTNGVDDMFEPHSWNLKELSDDCFQQWGVRPRPSWITTMYGGKNISSHTNIVFSNGELDPWSGGGVTKDITDTLVAVTISEGAHHLDLRTKNALDPMSVLLARSLEVRHMKNWIRDFYDSAGKQH
Km of prekallikrein activation: Recombinant PRCP51 activates PK with a Km and Vmax of 9 nM and 0.2 min^-1, respectively
Vmax of prekallikrein activation: Recombinant PRCP51 activates PK with a Km and Vmax of 9 nM and 0.2 min^-1, respectively
